From article PMC4286236

Experiments:
Test in all cases: AraTM assay
[1] = target: Danio rerio PlxnA3 TM + JM (amino acids 1241-1314) D1302Y, AraTM construct (EP-PCR mutant); settings: E. coli membranes; four replicates; read off a plot
[2] = target: Danio rerio PlxnA3 TM + JM (amino acids 1241-1314) L1274A, AraTM construct; settings: E. coli membranes; minimum of eleven replicates over three experiments; read off a plot
[3] = target: Danio rerio PlxnA3 TM + JM (amino acids 1241-1314) L1277F, AraTM construct; settings: E. coli membranes; minimum of eleven replicates over three experiments; read off a plot
[4] = target: Danio rerio PlxnA3 TM + JM (amino acids 1241-1314) L1284A, AraTM construct; settings: E. coli membranes; minimum of eleven replicates over three experiments; read off a plot
[5] = target: Danio rerio PlxnA3 TM + JM (amino acids 1241-1314) M1281F, AraTM construct; settings: E. coli membranes; minimum of eleven replicates over three experiments; read off a plot
[6] = target: Danio rerio PlxnA3 TM + JM (amino acids 1241-1314) M1281L, AraTM construct; settings: E. coli membranes; minimum of eleven replicates over three experiments; read off a plot
[7] = target: Danio rerio PlxnA3 TM + JM (amino acids 1241-1314) M1281T, AraTM construct; settings: E. coli membranes; minimum of eleven replicates over three experiments; read off a plot
[8] = target: Danio rerio PlxnA3 TM + JM (amino acids 1241-1314) V1288F, AraTM construct (EP-PCR mutant); settings: E. coli membranes; four replicates; read off a plot

Substance “Danio rerio PlxnA3 TM + JM (amino acids 1241-1314), wild type, AraTM construct D1302Y” has an other: % change in AraTM fluorescence/absorbance from WT (% change from WT) [1] of 85.

“Danio rerio PlxnA3 TM + JM (amino acids 1241-1314), wild type, AraTM construct L1274A” showed an other: % change in AraTM fluorescence/absorbance from WT (% change from WT) [2] of -1.

For “Danio rerio PlxnA3 TM + JM (amino acids 1241-1314), wild type, AraTM construct L1277F”, the other: % change in AraTM fluorescence/absorbance from WT (% change from WT) [3] was -2.3.

“Danio rerio PlxnA3 TM + JM (amino acids 1241-1314), wild type, AraTM construct L1284A” was tested, and the other: % change in AraTM fluorescence/absorbance from WT (% change from WT) [4] was -7.6.

“Danio rerio PlxnA3 TM + JM (amino acids 1241-1314), wild type, AraTM construct M1281F” was tested, and the other: % change in AraTM fluorescence/absorbance from WT (% change from WT) [5] was -7.2.

Substance “Danio rerio PlxnA3 TM + JM (amino acids 1241-1314), wild type, AraTM construct M1281L” has an other: % change in AraTM fluorescence/absorbance from WT (% change from WT) [6] of 23.

Work on “Danio rerio PlxnA3 TM + JM (amino acids 1241-1314), wild type, AraTM construct M1281T” yielded an other: % change in AraTM fluorescence/absorbance from WT (% change from WT) [7] of -12.

In the case of “Danio rerio PlxnA3 TM + JM (amino acids 1241-1314), wild type, AraTM construct V1288F”, the other: % change in AraTM fluorescence/absorbance from WT (% change from WT) [8] is reported as 25.
